Results: patent US20120094909A1 (Bristol-Myers Squibb, published 2012)
Changes are numbered by the printed parent chain. “And” between values parts separate entries of the source, which are not always exact repeats. Identical values can stand only once.

B1: 1459D05 (designed binder)
chain: MGVSDVPRDLEVVAATPTSLLISWPPPSHGYGYYRITYGETGGNSPVQEFTVPPGKGTATISGLKPGVDYTITVYAVEYPYKHSGYYHRPISINYRTEIDKPSQHHHHHH
notes: also called ATI000891; ATI-891
B2: 1923B02 (designed binder)
chain: B1 chain with P25T, S28P, H29K, P54V, K56E, P80T, K82N, H83G, S84A
notes: Anti-PCSK9 Adnectin, His6-tagged
B3: 2011H05 (designed binder)
chain: B1 chain with P25V, P27S, G30A, P54V, K56V, P80A, Y81F, K82E, H83G, S84A
notes: also called ATI001091
B4: 1922G04 (designed binder)
chain: B1 chain with P25R, G30A, P54I, Y81W, H83G
notes: also called ATI001057; ATI-1057
B5: 1923B02 (designed binder)
chain: B1 chain with P25T, S28P, H29K, P54V, K56E, P80T, K82N, H83G, S84A
B6: 2451C06 (designed binder)
chain: MGVSDVPRDLEVVAATPTSLLISWDAPAGAASYGYYRITYGETGGNSPVQEFTVPVSKGTATISGLKPGVDYTITVYAVEFPFPGAGYYHRPISINYRTEIDKPSQHHHHHH
notes: as for B2
B7: 2382F05 (designed binder)
chain: MGVSDVPRDLEVVAATPTSLLISWDAPAEAGKHYGYYRITYGETGGNSPVQEFTVPVSKGTATISGLKPGVDYTITVYAVEFDFPGAGYYHRPISINYRTEIDKPSQHHHHHH
notes: as for B2
B8: 2381B02 (designed binder)
chain: MGVSDVPRDLEVVAATPTSLLISWEPFSRLPGGGEYYRITYGETGGNSPLQQFTVPGSKGTATISGLKPGVDYTITVYAVEYPYDYSGYYHRPISINYRTEIDKPSQHHHHHH
notes: as for B2
B9: 2381B04 (designed binder)
chain: B8 chain with D85E, Y86H
notes: as for B2
B10: 2381B08 (designed binder)
chain: MGVSDVPRDLEVVAATPTSLLISWDAPADGGYGYYRITYGETGGNSPVQEFTVPSSKGTATISGLKPGVDYTITVYAVEYTFPGAGYYHRPISINYRTEIDKPSQHHHHHH
notes: as for B2
B11: 2382H03 (designed binder)
chain: B10 chain with D29E, G31A, S55V, T81P, F82Y, G84F
notes: as for B2
B12: 2382D03 (designed binder)
chain: B10 chain with G30E, G31A, S55V, Y80F, T81D
notes: as for B2
B13: 2381G09 (designed binder)
chain: B10 chain with D29G, G30D, S55V, Y80F
notes: as for B2
B14: 2381H09 (designed binder)
chain: B10 chain with D29G, S55V, Y80F, T81D, P83V
notes: as for B2
B15: 2381F11 (designed binder)
chain: B10 chain with S55V, G58S
notes: as for B2
B16: 2382C05 (designed binder)
chain: B10 chain with G31A, S55V, T81S
notes: as for B2
B17: 2382G04 (designed binder)
chain: B10 chain with D29G, Y80F, T81D
notes: as for B2
B18: 2382E03 (designed binder)
chain: B10 chain with D29G, G30D, S55V, Y80F, T81D
notes: as for B2
B19: 2382E05 (designed binder)
chain: B10 chain with D29E, S55V, Y80F, T81D
notes: as for B2
B20: 1813E02 (designed binder)
chain: B1 chain with P25S, S28A, H29N, P54V, K56R, P80T, H83G
notes: as for B2
B21: 1784F03 (designed binder)
chain: B1 chain with P25R, S28I, G30A, P54I, G55V, K56E, P80T, Y81F
notes: as for B2

These binders were tested against T1, human PCSK9 (proprotein convertase subtilisin kexin type 9) (human, UniProt Q8NBP7 31-692) (assay: SPR ProteOn, 25 C).
T1 construct: Directly immobilized (SPR ProteOn), biotinylated (BLI), or in solution, depending on the assay; also called hPCSK9
Description: (§1) The binding characteristics were characterized by Surface Plasmon Resonance (SPR). […] This allowed kinetic determination in the absence of regeneration. […] Evaluation of the kinetic parameters was performed using the Langmuir interaction model and constant parameter fitting with the ProteOn Manager software.

| Kd | Binder |
| --- | --- |
| 1.58 nM | B1 |
| 0.17 nM | B2 |

These binders were tested against T2, human PCSK9 (proprotein convertase subtilisin kexin type 9) (human, UniProt Q8NBP7 31-692) (assay: cell-based or functional assay).

| EC50 (nM), PCSK9-induced LDLR depletion from HepG2 cell surface | percentage of PCSK9 inhibition at 75 nM | Binder |
| --- | --- | --- |
| 8.85 nM | 177% | B3 |

What follows are binders tested against T2, human PCSK9 (proprotein convertase …) (assay: SPR (ProteOn), 25 C).

| Kd | Binder |
| --- | --- |
| 0.09 nM | B4 |
| 0.173 nM | B5 |
| 0.08 nM | B3 |

What follows are binders tested against T1, human PCSK9 (proprotein convertase …) (assay: BLI Octet Red, 37 C).
Description: (§2) Tips were then immersed into a buffer-only well for observation of Adnectin dissociation. Experiments were performed in a temperature controlled environment at either 25 or 37° C., and the oscillation speed was set at 1500 rpm.
(§3) Binding interaction analysis was performed using proprietary software from Fortebio (Fortebio Data Analysis Software version 6.3.0.36). Global fits were performed for all samples, using a 1:1 binding model. The nature of these global fits constrained all values of concentration to a single pair of association and dissociation rates that were themselves constrained to each other. Affinities (KD), association and dissociation rates were averaged over the various loading levels used in the analysis.

| Kd | Binder |
| --- | --- |
| 1.27 nM | B6 |
| 4.54 nM | B7 |
| 3.29 nM | B8 |
| 0.527 nM | B9 |
| 4.11 nM | B10 |
| 0.677 nM | B11 |
| 1.53 nM | B12 |
| 1.12 nM | B13 |
| 3.23 nM | B14 |
| 1.59 nM | B15 |
| 2.49 nM | B16 |
| 1.11 nM | B17 |
| 2.94 nM | B18 |
| 0.604 nM | B19 |
| 14.4 nM | B1 |

Biological target: T2, human PCSK9 (proprotein convertase …)
Test: cell-based or functional assay
Remark: another data set of the same source

| LDLR Depletion (% inhibition at 75 nM) | LDLR Depletion EC50 | Binder |
| --- | --- | --- |
| 105% | 10 nM | B4 |
| 178% | 23 nM | B5 |
| 198% | 12 nM | B3 |

The binders below were run against T1, human PCSK9 (proprotein convertase …) (assay: cell-based or functional assay).

| LDLR Depletion EC50 | Binder |
| --- | --- |
| 16 nM | B20 |
| > 200 nM | B1 |
| 26 nM | B21 |
| 23 nM | B2 |

These binders were tested against T1, human PCSK9 (proprotein convertase …) (assay: FRET, competitor ATI000972).
Excerpt: (§4) Table 11 summarizes the overall data from these three FRET assays.

| IC50 | Binder |
| --- | --- |
| 2.4 nM | B20 |
| 14 nM | B1 |
| 1.9 nM | B21 |
| 3.2 nM | B2 |

Each binder was assayed against T1, human PCSK9 (proprotein convertase …) (assay: FRET, competitor ATI001125).
Excerpt: as §4

| IC50 | Binder |
| --- | --- |
| 0.4 nM | B6 |
| 0.9 nM | B7 |
| 0.5 nM | B8 |
| 0.5 nM | B9 |
| 1 nM | B10 |
| 0.3 nM | B11 |
| 0.6 nM | B12 |
| 1.1 nM | B13 |
| 0.5 nM | B14 |
| 0.8 nM | B15 |
| 0.9 nM | B16 |
| 0.5 nM | B17 |
| 0.5 nM | B18 |
| 0.4 nM | B19 |

These binders were tested against T1, human PCSK9 (proprotein convertase …) (assay: FRET, competitor EGFA peptide).
Excerpt: as §4

| EC50 | IC50 | Binder |
| --- | --- | --- |
| 1.2 nM | 1.2 nM | B6 |
| 2.4 nM | 2.4 nM | B7 |
| 2.5 nM | 2.5 nM | B8 |
| 2.4 nM | 2.4 nM | B9 |
| 2.6 nM | 2.6 nM | B10 |
| 3.4 nM | 3.4 nM | B11 |
| 3.3 nM | 3.3 nM | B12 |
| 3.1 nM | 3.1 nM | B13 |
| 3.4 nM | 3.4 nM | B14 |
| 4 nM | 4 nM | B15 |
| 4 nM | 4 nM | B16 |
| 2.9 nM | 2.9 nM | B17 |
| 2.4 nM | 2.4 nM | B18 |
| 2.8 nM | 2.8 nM | B19 |
| 2.7 nM | 1.3 nM | B20 |
| 5.8 nM | 4 nM | B1 |
| 2.01 nM | 2 nM | B21 |
| 2.3 nM | 2.3 nM | B2 |

These binders were tested against cynomolgus monkey PCSK9 (cynomolgus monkey, UniProt A0A7N9D9N8 150-747) (assay: FRET, competitor EGFA peptide).
Excerpt: as §4

| EC50 | IC50 | Binder |
| --- | --- | --- |
| 24.7 nM |  | B6 |
| 14.6 nM |  | B7 |
| 9.8 nM |  | B8 |
| 17.3 nM |  | B9 |
| 27.1 nM |  | B10 |
| 19.8 nM |  | B11 |
| 11.8 nM |  | B12 |
| 25.2 nM |  | B13 |
| 20.2 nM |  | B14 |
| 26.5 nM |  | B15 |
| 27.2 nM |  | B16 |
| 20.1 nM |  | B17 |
| 10.8 nM |  | B18 |
| 12.6 nM |  | B19 |
| 118 nM | 118 nM | B20 |
| > 1000 nM | 2300 nM | B1 |
| 106 nM | 106 nM | B21 |
| 53.5 nM |  | B2 |

The binders below were run against T1, human PCSK9 (proprotein convertase …) (assay: SPR ProteOn, PCSK9 immobilized, 25 C).
Description: as §1

| Kd | koff | kon | Binder |
| --- | --- | --- | --- |
| 1.58 nM | 0.00018 s⁻¹ | 113000 M⁻¹ s⁻¹ | B1 |

What follows are binders tested against T1, human PCSK9 (proprotein convertase …) (assay: BLI, biotinylated hPCSK9 on sensor tips).
Description: as §2, §3

| Kd | koff | kon | Binder |
| --- | --- | --- | --- |
| 1.27 nM | 0.000435 s⁻¹ | 347000 M⁻¹ s⁻¹ | B6 |
| 4.54 nM | 0.00109 s⁻¹ | 244000 M⁻¹ s⁻¹ | B7 |
| 3.29 nM | 0.000831 s⁻¹ | 265000 M⁻¹ s⁻¹ | B8 |
| 0.527 nM | 0.00016 s⁻¹ | 309000 M⁻¹ s⁻¹ | B9 |
| 4.11 nM | 0.00094 s⁻¹ | 213000 M⁻¹ s⁻¹ | B10 |
| 0.677 nM | 0.000557 s⁻¹ | 471000 M⁻¹ s⁻¹ | B11 |
| 1.53 nM | 0.000663 s⁻¹ | 354000 M⁻¹ s⁻¹ | B12 |
| 1.12 nM | 0.000291 s⁻¹ | 271000 M⁻¹ s⁻¹ | B13 |
| 3.23 nM | 0.00046 s⁻¹ | 136000 M⁻¹ s⁻¹ | B14 |
| 1.59 nM | 0.000522 s⁻¹ | 323000 M⁻¹ s⁻¹ | B15 |
| 2.49 nM | 0.000879 s⁻¹ | 368000 M⁻¹ s⁻¹ | B16 |
| 1.11 nM | 0.000464 s⁻¹ | 419000 M⁻¹ s⁻¹ | B17 |
| 2.94 nM | 0.000596 s⁻¹ | 220000 M⁻¹ s⁻¹ | B18 |
| 0.604 nM | 0.00025 s⁻¹ | 436000 M⁻¹ s⁻¹ | B19 |
|  |  | 149000 M⁻¹ s⁻¹ and 108000 M⁻¹ s⁻¹ | B1 |

The binders below were run against T1, human PCSK9 (proprotein convertase …) (assay: FRET direct binding, anti-his6 antibody).
Excerpt: as §4

| EC50 | Binder |
| --- | --- |
| 5.5 nM | B6 |
| 3.8 nM | B7 |
| 8.4 nM | B8 |
| 4.2 nM | B9 |
| 4.1 nM | B10 |
| 3.8 nM | B11 |
| 3.3 nM | B12 |
| 4.5 nM | B13 |
| 4.1 nM | B14 |
| < 1 nM | B15 |
| 3.4 nM | B16 |
| 3.6 nM | B17 |
| 3.7 nM | B18 |
| 3.8 nM | B19 |
| 2.3 nM | B20 |
| 3.9 nM | B1 |
| 1.6 nM | B21 |
| 3.2 nM | B2 |

Each binder was assayed against T2, human PCSK9 (proprotein convertase …) (assay: PCSK9:EGFA FRET, competitor EGFA peptide).

| EC50 | Binder |
| --- | --- |
| 1.2 nM | B4 |
| 2.3 nM | B5 |
| 2.7 nM | B3 |
